We go through 34 variants from the supplement of paper PMC7125110.

First the molecules themselves.
B1: glmS ribozyme (parent)
chain: AUAAAAGCGCCAGAACUACAGAAAUGUAGUUGACGAGGAGGAGGUUUAUCGAAUUUUCGGCGGAUGCCUCCAAA

± gives the standard error. This sample holds only a part of the variants without activity.

In one data set the parent is B1. Description: self-cleavage kobs at 2500 uM GlcN6P; higher = faster cleavage; RNA array. The conditions noted are these: with glucosamine-6-phosphate. In outline:
(§1)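 On sequenced MiSeq chips, barcoded ribozyme variants were made in situ by E. coli RNA polymerase and followed at 37 °C through a hybridised Cy3 probe. Glucosamine-6-phosphate was flowed in at 40 μM to 10 mM in HEPES/KCl/Mg(OAc)2 buffer. Exponential fits to normalised per-tile medians gave kobs, and weighted Michaelis–Menten fits gave kcat and KM.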
As for AUAAAAGCGCCUGAACUACAGAAAUGUAGUUGACGAGGAGGAGGUUUUUCGAAUUUUUGGCGGAUGCCUCCAAA [A12U A48U C58U], the “self-cleavage kobs at 2500 uM GlcN6P” value was < 1e-05 s⁻¹. The same measure, in the same setting: in the case of AUAAAAGCGCCAGCACUACAGAAAUGUAGUUGAGGAGGAGGAGGUUUAUCGAAUUUUCGGCUGAUGCCUCCAAA [A14C C34G G62U] it was < 1e-05 s⁻¹. For the variant AUAAAAGCGACAGAACUACAGAAAUGUAGUUGACUAGGAGGAGGUUUCUCGAAUUUUCGGCGGAUGCCUCCAAA [C10A G35U A48C], the “self-cleavage kobs at 2500 uM GlcN6P” value was < 1e-05 s⁻¹. With AUAAAAGCGCCAGUACUACAGAAAUGUAGUUGACGAGGAGGAGGUUUAUCAAAUUUUGGUCGUAAGCCUCCAAA [A14U G51A C58G G60U G63U U65A], the “self-cleavage kobs at 2500 uM GlcN6P” value was < 1e-05 s⁻¹. Regarding AUAAAAGCGCCAGAACUACAGAAAUGUAGGCGACGAGGAGGAGGUUCAUCGAAUUUUCGGCGGAUACCUCCAAA [U30G U31C U47C G66A], the “self-cleavage kobs at 2500 uM GlcN6P” value was 2.71e-05 ± 1.2e-05 s⁻¹. Still for that read-out and setting: next, AUAAAAGCGCCAGAGCUACAGAAAUGUAGUUGACGAGGAGGAGGUUUCUUGAAUUUUCGGCGGAUGCCUCCAAA [A15G A48C C50U]: < 1e-05 s⁻¹. Turning to AUAAAAGCACCAGAACUACAGAAAUGUAGUUGACGAGGAGGAGGUUUAUCGAAGUUUCGGCAGAUGCCUCCAAA [G9A U54G G62A], the “self-cleavage kobs at 2500 uM GlcN6P” value is < 1e-05 s⁻¹.

On to AUAAAAUCGCCAGAACUACAGAAAUGUAGUUGACGAGGAGGAGGUUUAUCGAGUUUACGGCGGAUGCCUCCAAA [G7U A53G U57A], for which the “self-cleavage kobs at 2500 uM GlcN6P” value was < 1e-05 s⁻¹.

Regarding AUAAAAGCGACAGAACUACAGAAAUGUACUUGACGAGGAGGAGGUUUAUCGAAUAUUCGGCGGAUGCCUGCAAA [C10A G29C U55A C70G], the “self-cleavage kobs at 2500 uM GlcN6P” value was determined as 9.79e-05 ± 2.6e-05 s⁻¹. On to AUAAAAGCGCCAGAACUACAGAAAUGUAGUUGACGAGGAAGAGGUUUAUCGAAUCUUGGGCGGAUGCCUCCAAA [G40A U55C C58G], for which the “self-cleavage kobs at 2500 uM GlcN6P” value is < 1e-05 s⁻¹.

On to AUAAAAGCGCCAGAACUACAGAAAUGUAGUUGACGAGGAGGAGGUUGAUCGAAUUUUAUGCGGAUGCCUGCAAA [U47G C58A G59U C70G], for which the “self-cleavage kobs at 2500 uM GlcN6P” value amounted to 0.000334 ± 9.7e-05 s⁻¹. Consider AUAAAAGCGCCAGUACUACAGAAAUGUAGUUGACGAGGAGGAGGGUAAUCGAACUUUCGGCUGAUGCCUCCAAA [A14U U45G U47A U54C G62U], for which the “self-cleavage kobs at 2500 uM GlcN6P” value was < 1e-05 s⁻¹.

For the variant AUAAAAGCGCCAGAACUACAGAAAUGUAGUUGACUGGGAGGAGGCUUAUCGAAUUUUCGGCGGAGGCCUCCAAA [G35U A36G U45C U65G], the “self-cleavage kobs at 2500 uM GlcN6P” value was < 1e-05 s⁻¹.

Consider AUAAAAGCCCCAGAACUACAGAAAUGUAGUUGACGAUGAGGAGGUUUAUCGAAUUUUUGGCUGUUGCCUGCAAA [G9C G37U C58U G62U A64U C70G], for which the “self-cleavage kobs at 2500 uM GlcN6P” value was < 1e-05 s⁻¹. For the variant AUAAAAGCGCCAGAACUACAGAAAUGUAGUUGACGAGGAGGAGGUUUCUCGGAUUUUUGGCGGAUGCCUCCAAA [A48C A52G C58U], the “self-cleavage kobs at 2500 uM GlcN6P” value was < 1e-05 s⁻¹.

Consider AUAAAAGCGCCAGAACUAAAGAAAUGUAGUUGAUGAGGAGGAGGAUUUUCGAAUUUUCGGCGGAUGCCUCCAAA [C19A C34U U45A A48U], for which the “self-cleavage kobs at 2500 uM GlcN6P” value was < 1e-05 s⁻¹.

As to AUAAAAGCGCCUGAACUACAGAAAUGUAGUUGACGAGGAGGAGGUUGAUCGAAUUUUCGGCGGAGGCCUCCAAA [A12U U47G U65G], the “self-cleavage kobs at 2500 uM GlcN6P” value turned out to be 0.00179 ± 0.0004 s⁻¹.

Regarding AUAAAAGCGCCAGUACUACAGAAAUGUAGUUGGCGAGGAUGAGGUUUAUCGAAUUAUCGGCGGAUGCCUCCAAA [A14U A33G G40U U56A], the “self-cleavage kobs at 2500 uM GlcN6P” value is < 1e-05 s⁻¹. Regarding AUAAAAGCGCCAGACCUACAGACAUGUAGUUGACGAGGAGGAGGUUUAUCGAAUUUUCGGCGGAUGCCUCCAAA [A15C A23C], the “self-cleavage kobs at 2500 uM GlcN6P” value amounted to 0.00398 ± 0.0014 s⁻¹.

Turning to AUAAAAGCGCCAGAAGUACAGAAAUGUAGUUGACGAGGAUGAGGUUUAUCGAAUUUUCGGCGGAUGCCGCCAAA [C16G G40U U69G], the “self-cleavage kobs at 2500 uM GlcN6P” value is < 1e-05 s⁻¹. AUAAAAGCGCCAAAUCUACAGAAAUGUAGUUGACGAGGAGGAGGUUUAUCGAAUUUUGGGCGGAGGCCUGCAAA [G13A A15U C58G U65G C70G]: the “self-cleavage kobs at 2500 uM GlcN6P” value was determined as 7.13e-05 ± 3.5e-05 s⁻¹. For AUAAAAGGCCCAGAACUACAGAAAUGUAGUUGACGAGGAGAAGGUUUAUCGAAUUUUCGCAGGAUGCGUCCAAA [C8G G9C G41A G60C C61A C68G], the “self-cleavage kobs at 2500 uM GlcN6P” value was < 1e-05 s⁻¹.

For AUAAAAGCGCCAGAACUACAGAAAUGUAGUCGUCGAGGAGGAGGUAUAUCGAAUUUCCGGCGGAUGCCUUGAAA [U31C A33U U46A U57C C70U C71G], the “self-cleavage kobs at 2500 uM GlcN6P” value was < 1e-05 s⁻¹. Regarding AUAAAAGCGAUAGAACUACAGAAAUGUAGUUGACGAGGAGGAGGUUUAUCGAAUUUUCGGCGGAUGCCUACAAA [C10A C11U C70A], the “self-cleavage kobs at 2500 uM GlcN6P” value was found to be 0.000126 ± 4.3e-05 s⁻¹. Same read-out and setting: next, AUAAAAGCGCCAGAACUACAGAAAUGUAGUUGAAGAAGAGGAUGUUUAUCGAAUUUUCGGCGGAUGCCUCCAAA [C34A G37A G43U]: < 1e-05 s⁻¹; AUAAAAGCGCCAGAUCUACAGAAAUGUAGUUGACGAGGAGGAGGUUUAUCUAAUUUUCGGCGGAAGCCUCCAAA [A15U G51U U65A]: < 1e-05 s⁻¹. As to AUAAAAGCGCCAGUACUACAGAAAUGUAGUUGACGAGGAGGCGGUUUAUCGAAAUUUCGGCGGAUGCCUCCAAA [A14U A42C U54A], the “self-cleavage kobs at 2500 uM GlcN6P” value was < 1e-05 s⁻¹. As to AUAAAAGCGCCAGAACUACAGAAAUGUAGUUGACGUGGAGGAGGUUUAUCGAAUCUUCGGCGGAUGCCUGCAAA [A36U U55C C70G], the “self-cleavage kobs at 2500 uM GlcN6P” value is < 1e-05 s⁻¹. Regarding AUAAAAGCGCCAGAACUACAGAAAUGUAGUUGACGAGCAGGAGGUUUAUCGAAUUUACGGCGUAUGCCUCCAAA [G38C U57A G63U], the “self-cleavage kobs at 2500 uM GlcN6P” value is < 1e-05 s⁻¹. As to AUAAAAGCGCCUGAACUACAGAAAUGUAGUUGGCGAGUAGGAGUUUUAUCGAAUUUUCAGCGGAUGCCUCCAAA [A12U A33G G38U G44U G59A], the “self-cleavage kobs at 2500 uM GlcN6P” value was < 1e-05 s⁻¹. Same read-out and setting: next, AUAAAUGCGCCAGAACUACAGAAAUGUAGUUGACGAGGAGGAGGUUUAUGGAAUGUUCGGCGGGUGUCUCCAAA [A6U C50G U55G A64G C67U]: 0.000132 ± 3.6e-05 s⁻¹; AUAAAACCGCAAGAACUACAGAAAUGUAGUUGACGAGGAGGAGGUUUAUCGAAUUUUCGCCGGAUGCCUCCAAA [G7C C11A G60C]: < 1e-05 s⁻¹. Consider AUAAAAGGGCCAGAACUACAGAAAUGUAGUUGACGCGGAGGAGGUUUAUCGACUUUUCGGCGGAUGCCUCCAAA [C8G A36C A53C], for which the “self-cleavage kobs at 2500 uM GlcN6P” value is < 1e-05 s⁻¹. Take AUAAAAGCGCCAGAUCUACAGAAAUGUAGUUUACGGGGAGGAGGUUUAUCGAAUUUUCGGCGGGUGCUUCCAAA [A15U G32U A36G A64G C68U]: the “self-cleavage kobs at 2500 uM GlcN6P” value is < 1e-05 s⁻¹.

The next data set covers variants of B1. Description: self-cleavage kobs at 10000 uM GlcN6P; higher = faster cleavage; RNA array. The conditions noted are these: with glucosamine-6-phosphate. In outline:
as §1
AUAAAAGCGCCAGAACUACAGAAAUGUAGUUGACUGGGAGGAGGCUUAUCGAAUUUUCGGCGGAGGCCUCCAAA [G35U A36G U45C U65G]: the “self-cleavage kobs at 10000 uM GlcN6P” value was < 1e-05 s⁻¹. Same read-out and setting: next, AUAAAAGCGCCAGACCUACAGACAUGUAGUUGACGAGGAGGAGGUUUAUCGAAUUUUCGGCGGAUGCCUCCAAA [A15C A23C]: 0.00556 ± 0.0014 s⁻¹; AUAAAAGGGCCAGAACUACAGAAAUGUAGUUGACGCGGAGGAGGUUUAUCGACUUUUCGGCGGAUGCCUCCAAA [C8G A36C A53C]: < 1e-05 s⁻¹.
